Earlier results on one substance are cited in article PMC7337057.

One series addresses Glu118 (UniProt position 118, WFVGREQERRG). The series is described as follows: NMR (solid-state). Particulars: not stated for this study (around 0 °C is stated for related SSNMR work from the same laboratory); 0.2 μM K+; K+ titrated at constant pH and ionic strength (value not stated); low ambient K+ (0.2 μM): K+-apo, collapsed selectivity filter, pH gate favoured open.
The next series concerns the target Glu120 (UniProt position 120, VGREQERRGHF). The series is described as follows: NMR (solid-state). Particulars: not stated for this study (around 0 °C is stated for related SSNMR work from the same laboratory); 0.2 μM K+; K+ titrated at constant pH and ionic strength (value not stated); low ambient K+ (0.2 μM): K+-apo, collapsed selectivity filter, pH gate favoured open.

In the case of “KcsA potassium channel (pH-gated K+ channel) (Streptomyces lividans)”, the pKa entry with Glu118 and with Glu120 was “above 7.5” in each case.
